Changes are numbered by the printed parent chain. Numbers in names are those of the source.
T1: Human CD3eg linker (human)
T1 construct: Single-chain construct; also called recombinant human CD3
T1 chain: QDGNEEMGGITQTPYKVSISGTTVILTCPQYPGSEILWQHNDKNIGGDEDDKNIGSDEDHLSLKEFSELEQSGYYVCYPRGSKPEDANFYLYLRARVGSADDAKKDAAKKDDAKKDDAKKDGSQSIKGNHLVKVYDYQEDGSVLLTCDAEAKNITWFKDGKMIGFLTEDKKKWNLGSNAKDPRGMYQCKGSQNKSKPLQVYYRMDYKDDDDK

B1: H183/L072 VL Y32Q (antibody, name in Kabat numbering, V domains shown)
VH: QVQLVESGGGLVQPGRSLRLSCAASGFTFSNAWMHWVRQAPGKGLEWVAQIKDKGNAYAAYYAPSVKGRFTISRDDSKNSIYLQMNSLKTEDTAVYYCHYVHYASASTVLPAFGVDAWGQGTTVTVSS
VL: DIVMTQSPLSLPVTPGEPASISCQASQELVHMNRNTQLHWYQQKPGQAPRLLIYKVSNRFPGVPDRFSGSGSGTDFTLKISRVEAEDVGVYYCAQGTSVPFTFGQGTKLEIK
B2: H183/L072 VL Y32N (antibody, name in Kabat numbering, V domains shown)
VH: B1 VH
VL: B1 VL with Q37N
B3: H183/L072 VL Y32H (antibody, name in Kabat numbering, V domains shown)
VH: B1 VH
VL: B1 VL with Q37H
B4: H183/L072 VL Y32D (antibody, name in Kabat numbering, V domains shown)
VH: B1 VH
VL: B1 VL with Q37D
B5: H183/L072 VL Y32L (antibody, name in Kabat numbering, V domains shown)
VH: B1 VH
VL: B1 VL with Q37L
B6: H183/L072 VL Y32K (antibody, name in Kabat numbering, V domains shown)
VH: B1 VH
VL: B1 VL with Q37K
B7: H183/L072 VL Y32T (antibody, name in Kabat numbering, V domains shown)
VH: B1 VH
VL: B1 VL with Q37T
B8: H183/L072 VL Y32A (antibody, name in Kabat numbering, V domains shown)
VH: B1 VH
VL: B1 VL with Q37A
B9: H183/L072 VL Y32S (antibody, name in Kabat numbering, V domains shown)
VH: B1 VH
VL: B1 VL with Q37S
B10: H183/L072 VL Y32E (antibody, name in Kabat numbering, V domains shown)
VH: B1 VH
VL: B1 VL with Q37E
B11: H183/L072 VL Y32G (antibody, name in Kabat numbering, V domains shown)
VH: B1 VH
VL: B1 VL with Q37G
B12: H183/L072 VH F27A (antibody, name in Kabat numbering, V domains shown)
VH: B1 VH with F27A
VL: B1 VL with Q37Y
B13: H183/L072 VH A54N (antibody, name in Kabat numbering, V domains shown)
VH: B1 VH with A57N
VL: B1 VL with Q37Y
B14: H183/L072 VH A32K (antibody, name in Kabat numbering, V domains shown)
VH: B1 VH with A32K
VL: B1 VL with Q37Y
B15: H183/L072 VH A54S (antibody, name in Kabat numbering, V domains shown)
VH: B1 VH with A57S
VL: B1 VL with Q37Y
B16: H183/L072 VH A54R (antibody, name in Kabat numbering, V domains shown)
VH: B1 VH with A57R
VL: B1 VL with Q37Y
B17: H183/L072 VH A54E (antibody, name in Kabat numbering, V domains shown)
VH: B1 VH with A57E
VL: B1 VL with Q37Y
B18: H183/L072 VH A54T (antibody, name in Kabat numbering, V domains shown)
VH: B1 VH with A57T
VL: B1 VL with Q37Y
B19: H183/L072 VH A54L (antibody, name in Kabat numbering, V domains shown)
VH: B1 VH with A57L
VL: B1 VL with Q37Y
B20: H183/L072 VH A54Y (antibody, name in Kabat numbering, V domains shown)
VH: B1 VH with A57Y
VL: B1 VL with Q37Y
B21: H183/L072 VH A32I (antibody, name in Kabat numbering, V domains shown)
VH: B1 VH with A32I
VL: B1 VL with Q37Y
B22: H183/L072 VH A54K (antibody, name in Kabat numbering, V domains shown)
VH: B1 VH with A57K
VL: B1 VL with Q37Y
B23: H183/L072 VH A32Y (antibody, name in Kabat numbering, V domains shown)
VH: B1 VH with A32Y
VL: B1 VL with Q37Y
B24: H183/L072 VH A32M (antibody, name in Kabat numbering, V domains shown)
VH: B1 VH with A32M
VL: B1 VL with Q37Y
B25: H183/L072 VH A32Q (antibody, name in Kabat numbering, V domains shown)
VH: B1 VH with A32Q
VL: B1 VL with Q37Y
B26: H183/L072 VH A32V (antibody, name in Kabat numbering, V domains shown)
VH: B1 VH with A32V
VL: B1 VL with Q37Y
B27: H183/L072 VH A32L (antibody, name in Kabat numbering, V domains shown)
VH: B1 VH with A32L
VL: B1 VL with Q37Y
B28: H183/L072 VH A32G (antibody, name in Kabat numbering, V domains shown)
VH: B1 VH with A32G
VL: B1 VL with Q37Y
B29: H183/L072 VH A32F (antibody, name in Kabat numbering, V domains shown)
VH: B1 VH with A32F
VL: B1 VL with Q37Y
B30: H183/L072 VH A54H (antibody, name in Kabat numbering, V domains shown)
VH: B1 VH with A57H
VL: B1 VL with Q37Y
B31: H183/L072 VH A54D (antibody, name in Kabat numbering, V domains shown)
VH: B1 VH with A57D
VL: B1 VL with Q37Y
B32: H183/L072 VH A54F (antibody, name in Kabat numbering, V domains shown)
VH: B1 VH with A57F
VL: B1 VL with Q37Y
B33: H183/L072 VH A32N (antibody, name in Kabat numbering, V domains shown)
VH: B1 VH with A32N
VL: B1 VL with Q37Y
B34: H183/L072 VH A54I (antibody, name in Kabat numbering, V domains shown)
VH: B1 VH with A57I
VL: B1 VL with Q37Y
B35: H183/L072 VH A32R (antibody, name in Kabat numbering, V domains shown)
VH: B1 VH with A32R
VL: B1 VL with Q37Y
B36: H183/L072 VH A56D (antibody, name in Kabat numbering, V domains shown)
VH: B1 VH with A59D
VL: B1 VL with Q37Y
B37: H183/L072 VH A54V (antibody, name in Kabat numbering, V domains shown)
VH: B1 VH with A57V
VL: B1 VL with Q37Y
B38: H183/L072 VH A32T (antibody, name in Kabat numbering, V domains shown)
VH: B1 VH with A32T
VL: B1 VL with Q37Y
B39: H183/L072 VH A54W (antibody, name in Kabat numbering, V domains shown)
VH: B1 VH with A57W
VL: B1 VL with Q37Y
B40: H183/L072 VH A32E (antibody, name in Kabat numbering, V domains shown)
VH: B1 VH with A32E
VL: B1 VL with Q37Y
B41: H183/L072 VH A32H (antibody, name in Kabat numbering, V domains shown)
VH: B1 VH with A32H
VL: B1 VL with Q37Y
B42: H183/L072 VH A54Q (antibody, name in Kabat numbering, V domains shown)
VH: B1 VH with A57Q
VL: B1 VL with Q37Y
B43: H183/L072 VH A32S (antibody, name in Kabat numbering, V domains shown)
VH: B1 VH with A32S
VL: B1 VL with Q37Y
B44: H183/L072 VH A54M (antibody, name in Kabat numbering, V domains shown)
VH: B1 VH with A57M
VL: B1 VL with Q37Y
B45: H183/L072 VH A56E (antibody, name in Kabat numbering, V domains shown)
VH: B1 VH with A59E
VL: B1 VL with Q37Y

Molecular target: T1, Human CD3eg linker
Test: SPR; fold vs parent H183/L072

fold change of affinity [fold] | Binder
0 | B1
0 | B2
0 | B3
0 | B4
0 | B5
0 | B6
0 | B7
0 | B8
0 | B9
0 | B10
0 | B11

molecular target: T2, Human CD137 ECD (human); test: single mutant vs template dBBDu183H
T2 construct: also called 4-1BB
T2 sequence (chain, as listed by the source limits assumed): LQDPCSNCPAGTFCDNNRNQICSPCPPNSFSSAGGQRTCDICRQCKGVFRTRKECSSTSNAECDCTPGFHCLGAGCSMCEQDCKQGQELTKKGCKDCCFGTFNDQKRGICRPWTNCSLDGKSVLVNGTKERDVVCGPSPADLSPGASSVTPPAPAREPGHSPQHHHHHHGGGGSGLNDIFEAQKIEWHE

fold change of affinity [fold] | Binder
0.3 | B12
1.1 | B13
1 | B14
0.9 | B15
0.9 | B16
1 | B17
0.3 | B18
1 | B19
0.9 | B20
2.2 | B21
0.9 | B22
0 | B23
1.6 | B24
1.6 | B25
3.7 | B26
1.2 | B27
0.1 | B28

fold change of affinity [fold] | Binder
0.1 | B29
1 | B30
1.1 | B31
0.9 | B32
0.3 | B33
0.5 | B34
0.3 | B35
0.3 | B36
0.5 | B37
3.9 | B38
0.8 | B39
0.4 | B40
0.2 | B41
1 | B42
0.9 | B43
1 | B44
0.5 | B45
